Laboratory results: article PMC4253547 (Leukemia research, 2014)
Changes are numbered by the printed parent chain. In names and notes the source's numbering stands. Where no end group is shown, it is not given here.

T1: MBP-AF9 (WT) (UniProt P42568 1-568)
T1 sequence (looked up): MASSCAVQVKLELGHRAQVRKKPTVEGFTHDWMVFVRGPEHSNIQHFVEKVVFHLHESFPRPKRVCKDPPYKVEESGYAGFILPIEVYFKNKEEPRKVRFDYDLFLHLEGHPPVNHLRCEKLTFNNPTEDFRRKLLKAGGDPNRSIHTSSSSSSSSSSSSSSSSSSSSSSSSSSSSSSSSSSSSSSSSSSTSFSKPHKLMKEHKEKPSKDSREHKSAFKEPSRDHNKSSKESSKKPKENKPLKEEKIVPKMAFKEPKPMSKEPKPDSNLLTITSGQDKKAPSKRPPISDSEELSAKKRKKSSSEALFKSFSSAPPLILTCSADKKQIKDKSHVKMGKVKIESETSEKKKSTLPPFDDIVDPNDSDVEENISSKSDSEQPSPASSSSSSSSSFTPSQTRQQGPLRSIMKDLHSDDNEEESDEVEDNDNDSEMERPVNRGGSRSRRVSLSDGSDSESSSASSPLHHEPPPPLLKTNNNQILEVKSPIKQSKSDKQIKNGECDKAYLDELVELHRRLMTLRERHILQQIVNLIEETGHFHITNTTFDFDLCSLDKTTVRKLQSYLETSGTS

T2: MBP-AF9 (D544R) (UniProt P42568 1-568, D544R)
T2 sequence (looked up): T1 sequence (looked up) with D544R


Key:
MLLT3 (Homo sapiens) = MLLT3 (Homo sapiens) (UniProt P42568); conditions: cited from earlier work
MBP-AF9 (WT) = biological target: T1, MBP-AF9 (WT); assay: other fluorescence titration
MBP-AF9 (D544R) = biological target: T2, MBP-AF9 (D544R); assay: other fluorescence titration

Chain of AFF1 (P51825 whole entry): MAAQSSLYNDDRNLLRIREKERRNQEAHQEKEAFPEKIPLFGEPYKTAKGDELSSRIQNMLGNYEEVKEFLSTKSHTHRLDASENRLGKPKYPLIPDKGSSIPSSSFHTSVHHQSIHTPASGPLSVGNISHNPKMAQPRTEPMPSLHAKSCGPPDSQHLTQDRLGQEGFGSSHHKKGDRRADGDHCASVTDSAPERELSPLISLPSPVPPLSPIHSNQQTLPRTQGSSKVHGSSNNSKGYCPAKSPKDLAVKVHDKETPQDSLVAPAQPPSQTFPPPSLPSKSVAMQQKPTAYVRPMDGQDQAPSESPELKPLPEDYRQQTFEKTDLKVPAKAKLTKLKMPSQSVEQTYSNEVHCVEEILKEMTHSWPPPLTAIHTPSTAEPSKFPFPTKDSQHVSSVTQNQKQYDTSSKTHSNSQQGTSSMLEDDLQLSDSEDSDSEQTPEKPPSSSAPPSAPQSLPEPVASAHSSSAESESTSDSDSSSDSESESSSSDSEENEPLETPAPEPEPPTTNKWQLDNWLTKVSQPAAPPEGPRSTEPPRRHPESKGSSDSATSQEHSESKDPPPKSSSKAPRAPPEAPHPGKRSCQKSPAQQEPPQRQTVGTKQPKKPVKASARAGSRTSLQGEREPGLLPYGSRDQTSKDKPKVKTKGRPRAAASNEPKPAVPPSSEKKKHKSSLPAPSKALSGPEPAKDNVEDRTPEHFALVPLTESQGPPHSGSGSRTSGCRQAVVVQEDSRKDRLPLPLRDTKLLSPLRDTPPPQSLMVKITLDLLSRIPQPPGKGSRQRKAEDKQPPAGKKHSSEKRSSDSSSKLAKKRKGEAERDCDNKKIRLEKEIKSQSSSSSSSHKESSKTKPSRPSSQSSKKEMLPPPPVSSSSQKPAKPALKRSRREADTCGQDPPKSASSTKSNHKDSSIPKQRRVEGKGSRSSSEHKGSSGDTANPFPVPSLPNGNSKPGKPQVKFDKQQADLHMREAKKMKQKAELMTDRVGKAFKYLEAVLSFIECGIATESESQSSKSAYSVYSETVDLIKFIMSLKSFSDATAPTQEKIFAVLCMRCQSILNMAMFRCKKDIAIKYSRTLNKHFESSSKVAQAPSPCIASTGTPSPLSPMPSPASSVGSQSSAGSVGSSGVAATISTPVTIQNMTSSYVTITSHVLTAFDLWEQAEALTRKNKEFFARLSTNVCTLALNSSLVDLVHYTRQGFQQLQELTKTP

Kd (MBP-AF9 (WT))	Kd (MBP-AF9 (D544R))	Molecule	Kd (MLLT3 (Homo sapiens))
–	–	AFF1 (from UniProt P51825)	0.17 nM
0.2 nM	–	LIVKIDLNLLTRIP (also: fluorescein (position not given here)) [Fluorescein AFF4 (WT) peptide]	–
37.4 nM	0.21 nM	LIVDIDLNLLTRIP (also: fluorescein (position not given here)) [Fluorescein AFF4 (K717D) peptide]	–
